Assay results: the DeepSol protein solubility set

Assay: soluble on expression in E. coli; label from the status in PepcDB or PDB records

Q: For “MKTIRYALKKEKEMMKKFIAPLLALLVSGCQIDPYTHAPTLTSTDWYDVGMEDAISGSAIKDDDAFSDSQADRGLYLKGYAEGQKKTCQTDFTYARGLSGKSFPASCNNVENASQLHEVWQKGADENASAIRLN”, which “soluble on expression in E. coli” value is on record?
A: not soluble

Q: Which “soluble on expression in E. coli” value does the source give for “MGSDKIHHHHHHMDFFQSKFLYGKKQSQFGIFRMPRNTTNCPVVVTIHGGFWKAEYGLEEIVPLDEDLVRRGYATWNVEYRRIGENGGGWPGTFSDVIDAVNYLAFLKEDFPLDLSRVVILGHSAGGHLALWLASRWNTKQADQMENVLHTSIKAIISLAGVSNLEEMWRIESKGKTSNNVSSFLGGTPEEASDRYHLASPYELLPLHVRQILVHGGSDQEVPLDLTLGYYKKAIRLADDVGLISDSRSDHFDLIDPFSSIWLSSADSLKNIINS” here?
A: not soluble

Q: For “MKSSSPISSLTTIISTGTNLGSGTDDDIYFGIHLNNGQKKEWLLDKETYNDFENGATDEYYLYINDMDFLPTMVDKVWVRKNSTGSFAGNWFFKALRIDANGNDVLSVSPNEWITDSNSQAEFNSDWSSVTNLTDPEFLEHHHHHH”, which “soluble on expression in E. coli” value is on record?
A: soluble

Q: Which “soluble on expression in E. coli” value does the source give for “MGSDKIHHHHHHMKVVIISGGNSPSYTLIKKELRESEYLIAADSGANTLFKYDVFPDYIIGDLDSIKTVALNYYKNRKVSILQYPPEKDYTDTEIAVNKAIDLGATEIVLLGCTGSRIDHLFGNIGMLLKCLKLGVSCVIKDDNNTIFLTETSIKIRGSLGKTFSIIPYSEEISDLTIIGAKYPLNNYKMKIGSAIGISNVFEEEEVKVQFNSGKILIVYPTD” here?
A: not soluble

Q: Which “soluble on expression in E. coli” value does the source give for “MGSDKIHHHHHHMRLEELVNNNYNKLNENDLHIWKYICCNKRECCTISIDELAKKCNISRTTISRFTQKLSLEGFGEFKVRLKLELGVSNNFKSSSVEDVYQDYYKTIKDMKEKDFLEICRMIYGAKHLFVYGTGAVQIAAANELKRHFISVNKFFVTVHGEAEMNMVLETATDEDLIVIISLSGEKKSAVEYLKKVKVKNIPSISITKLSDNSIARLCDENLYIITRNIKIEGVVTCENVGQYFILIEILFLKYITYLGQLKKEDTIS” here?
A: not soluble

Q: For “MAHHHHHHMTVEDQVDHLLAPQRDGQENIQQRQEFNGFVHWGLLHGAHMVLEENQDTKRAHEFVNRYMRDIDLFEKWLEHPKVRAHIQKKFGIDMSAKFDKLMALTMAMYTRSKIQVYEDDPAGALKSLTASMSFITEGADLKKERHRKALGAVLVARGMIHCKLKSFHRADDDLTRALAFVKANRSATLYQLRAEAREALGHIDEARADEERAAQIWEEAEVITPGMDGAPRKFVT”, which “soluble on expression in E. coli” value is on record?
A: soluble

Q: Which “soluble on expression in E. coli” value does the source give for “MGHHHHHHSHINTPEQTVPYGLSNYRGSFRGKRSAGPLPGNLQLSHRPHLRCACVGRYDKACLHFCTQTLDVSSNSRTAEKTDKEEEGKVRGANRGLCQRRLKSRTNKASRL” here?
A: not soluble

Q: With “AVTIPPARHAEPQRWIARLPGFKISENKAQALWELAGKNIEGLQTDKALPTDWQAWRSEPQNAALLENLKTFFAQMPSEDEAAQGSDGIN” as the sequence, how does the “soluble on expression in E. coli” value read?
A: not soluble

Q: Which “soluble on expression in E. coli” value does the source give for “GPGSMEPKRSGNMACVERERERDYWRHLERLNNQRCRIDNTIPVSCAYVRPIGSMRRNPARAEQVNRDNQKLVEKMVHIMNTRGGVDTSEPWRDYNKAINSQRRRNQEQANIARENAKLLDRLERTQPTYRSEKFEADRRRNEEFAARASRYPYQPMDRTRY” here?
A: soluble

Q: Which “soluble on expression in E. coli” value does the source give for “SGSCCSCPDKDTVPDNHRNKFKVINVDDDGNELGSGIMELTDTELILYTRKRDSVKWHYLCLRRYGYDSNLFSFESGRRCQTGQGIFAFKCARAEELFNMLQEIMQNNSINVVEEPVVERNNHQTELEVPRTPRTPTTPGFAAQNLPNGYPRYPSFGDASSHPSSRHPSVGSARLPSVGEESTHPLLVAEEQVHTYVNTTGVQEERKNRTSVHVPLEARVSNAESSTPKEEPSSIEDRDPQILLEPEGVKFVLGPTPVQKQLMEKEKLEQLGRDQVSGSGANNTEWDTGYDSDERRDAPSVNKLVYENINGLSIPSASGVRRGRLTSTSTSDTQNINNSAQRRTALLNYENLPSLPPVWEARKLSRDEDDNLGPKTPSLNGYHNNLDPMHNYVNTENVTVPASAHKIEYSRRRDCTPTVFNFDIRRPSLEHRQLNYIQVDLEGGSDSDNPQTPKTPTTPLPQTPTRRTELYAVIDIERTAAMSNLQKALPRDDGTSRKTRHNSTDLPMLAWK” here?
A: soluble

Q: With “RSFYNLGMDYKYRFHRFSIQGEAALGISGMAFMNQVLYSPLQDIRLMLVHRYYSHDYWAMFAHSFSEGSSVQNENGWYLAASVNPFNRWTFFVSADLFSFPWWRYRISKASKGVDLLFQADYVPSKTVDMYVNYRYKQKERDVTGTQGKVILPTYHHRLRYRLNYLPCSSLSLRTTVDYNHFHSSGKTAGQGYQLTQTAGWKLPWLPLTTELQGSYFHTDDYDSRIYIYEKGLLYSFYTPSFQGEGIRLAIHFRYDMNKHWTAIAKLGQTTYFDRDEIGSGNDLIRGNKKTDVQMQLRLKF” as the sequence, how does the “soluble on expression in E. coli” value read?
A: not soluble

Q: Which “soluble on expression in E. coli” value does the source give for “GHMNAYLSDQPVRLSPLRDEQGNQPRFGLLLEPGRPGMHVGELPAQWLKGLARSHHLLLLRGFAAFADAESLTRYCHDFGEVMLWPFGAVLELVEQEGAEDHIFANNYVPLHWDGMYLETVPEFQVFHCVDAPGDSDGGRTTFSSTPAALQLADSSELELWRRASGRYQRSAAHYSSRSAAPIVERHPRREFPILRFCEPPVEGDASFINPSEFHYDGIAPEQRGELLASLRRCLYHPQAHYAHRWRSDDLVIADNLTLLHGREAFAHRAPRHLRRVHIHAEPALRNPHLQRD” here?
A: soluble

Q: Which “soluble on expression in E. coli” value does the source give for “MSLNDLVMDVDLDFADGQSPMRTKKANEIIRDPISGSVVIPIDADKFPKESHNSPLVFKLGNGANENIMHVKSQKDVNLYPVPLSTSDFSENFINYICNLFDIYQDLGSHRIFSRPTIGVISSDYELEHTRVVNMALDSMIIELEILIASYDKLENANIARILELEQCLVILQCLRTFQFIDSINDRATFFDSLLKWTNRTDGEPKVEYIQSIFGQSDSSQVFFTEPFWKLVYQLLLRGLTEQAINTLEKSELAKYLKENCETTSTIFEDFIQLVKNYPLESEEHFREWKSFALELQQNFEDADTKIPVPLRKNLLDAISITAGNRDKILQHSSFWYESLTGFLLYYIPSEELIQEYVGLAVSKTPIDVTNPWETACLKILQNDIFPVLPILESLDNCTASFSAALCESKGLLIDRYTILEENSGSDDIEIDDIFSQRNGMASFLLNNFALELCSMKMKTLWPVAIGLISLSPYNTPSSKKSTIAELIPHYPFETNDDIEWALSVCAKWRLPDIAKEIYTTLGNQMLDNGNTVEAIANFSKAGQYELVKHYSWLLFENAAFQGKPMEDEVLSAIVDGDFNTSELIPDEVLNKVVTNAMRQSLSPYAVLSQFFSNVENERWSKALQQLMSLIEFEYLPKKYTVLLIVKYMYPLFLNDDQRMIDEETLVSLLAAIEKNWDCDDTDSVIAYEKLSEEIADLPKELKSMEKLIRKKLNGKLCLNLMIEGHHHHHH” here?
A: soluble

Q: Which “soluble on expression in E. coli” value does the source give for “MRMAQVVLENVTKVYENKVVAVKNANLVVEDKEFVVLLGPSGCGKTTTLRMIAGLEEITDGKIYIDGKVVNDVEPKDRDIAMVFQNYALYPHMTVYENMAFGLKLRKYPKDEIDRRVREAAKILGIENLLDRKPRQLSGGQRQRVAVGRAIVRNPKVFLFDEPLSNLDAKLRVQMRSELKKLHHRLQATIIYVTHDQVEAMTMADKIVVMKDGEIQQIGTPHEIYNSPANVFVAGFIGSPPMNFVNARVVRGEGGLWIQASGFKVKVPKEFEDKLANYIDKEIIFGIRPEDIYDKLFALAPSPENTITGVVDVVEPLGSETILHVKVGDDLIVASVNPRTQAKEEQKIDLVLDMTRMHAFDKETEKAII” here?
A: soluble

Q: With “MGSDKIHHHHHHQEPENQTLETILNRKSVRKYKDRPVEKEKIDKLIRAGMAAPSSRDRRPWEFIIVTDRKALDTMAEGLPFARMLKETRQAIVVCGDTIKSSNAWFLDCSAASQNLLLAAESMGLGAVWTAVYPYPDRIEIVRKELRLPDHIMPLNVIPVGYPMQKETPKNKYNVQQIHHNGW” as the sequence, how does the “soluble on expression in E. coli” value read?
A: not soluble

Q: With “MGSDKIHHHHHHMPQIGYQWLSSKCGVVPVHPFAVQSEIGRARSTSTDGDIRREIYPEPYRPTASLTDNLTFAFRHEGIHLEFLARLYALPSVRKELEAWIAREPTGAYARRACFFYEWLMPAPLDAPGVSKGNYVDALNPEEFVVGASINNTRWRVRDNLPGNRDFCPVIRRVEAVQRAETYDLAAPLAELEADYGIDLILRSAVWLTVKESRASFLIEHEQDNEDRIRRFAAVMESECGQHANPFDAGTLNVLQRGILGQSALRYGIRRSPVYVGHVARYQPVVDYIAPPWQHIEVMLAGLTRFLERTAGRAPLVRAAAASFGFVYAHPMADGNGRISRFLINDILRRDGAVPAPIILPVSATITHSTRDRAAYDKVLERFSRPLMKHYADQYTFGKTEIAEDGVEYNLHFHAYEDALPAWRYPDLTAHVGYLADVIDATLAHEMRTEARFLQANDKARRAIKDFLEAPDNDLDGIIRSVRQNGNSISNNLRKRYPLLDERPELGAQIVEAVAEAFADDKSH” as the sequence, how does the “soluble on expression in E. coli” value read?
A: not soluble

Q: Which “soluble on expression in E. coli” value does the source give for “DPQPDPLQPDVYLLVNARAAHTNGEESINMDAEDFEDRVHSLAMLVFDSNTGEKVAEHFSSSIGSGTSTYVFTVKLKPGQRD” here?
A: not soluble

Q: With “MSLGDSEIYVSLDIGTASVKVIIAEMADDRLNIIGVGNVESSGIKKGIIIDIHKTVESIKKAIEQAERMVGVEISQVIVGVVSSQVHLEACRGIVAVGSENREITDEDVWNVMDAAQVVPLSPEREIINTIPDQFVVDGLTGITDPRGMIGVRLEMEGTLITGSKTILHNTLRCVERAGLEISDIALQPLAEASISLSEDDKEFGTALVNVGAGTTTVSVFEQGRLTYTGVIPVGGDNITKDLSLGLNTSTANADRVKLDHGYAFYDDASPDEVFAIDVIGSDQKQHFTQVEVADIIEARMEEIFQLVVEELTRVGKTHLPGGYVLTGGSMAIPGAIDLAGKTLAAHVRLAIPDYIGVREPSFTTAVGLIKYAYQMVELEGRDVSSEGHHHHHH” as the sequence, how does the “soluble on expression in E. coli” value read?
A: soluble

Q: Which “soluble on expression in E. coli” value does the source give for “MGSDKIHHHHHHVERRIFGLENEYGVTCTFRGQRRLSPDEVARYLFRRVVSWGRSSNVFLRNGARLYLDVGSHPEYATPECDNLLDLVAHDKAGERILEGLQIDAEQRLREEGIAGDIYLFKNNTDSAGNSYGCHENYLVARHGEFGKLADVLIPFLVTRQIICGAGKVLQTPRGALYCVSQRAEHIWEGVSSATTRSRPIINTRDEPHADAERFRRLHVIVGDSNMSETTTLLKLASTDLVLRMIEANVPMRDFTLENPIRAIREISHDMTGRRKVRLANGREASALEIQREYLERVQSFVDRTGTDATGKRVLELWQRTLEAVESGNLDLVAREIDWVAKYKLLERYRAKHGLSLSSPRVAQLDLTYHDIHRDRGLFYLLQQRGQMERVVSDLRIFEAKSVPPQTTRARLRGEFIKKAQEKRRDFTVDWVHLKLNDQAQRTVLCKDPFKAVDERVEKLIAGM” here?
A: not soluble

Q: Which “soluble on expression in E. coli” value does the source give for “NKNFSWNVNFNLTHFKNKVLELSPELNGQLIDGARIYREDESMYQLYLPKYVGVDSETGESLWALVTPDENGNTVTKSYSVASENRFASGDILPKVYGGFGTSVTAYGFDLSVSFAYQLGGRILDYTYQGLMDVAATGSALHKDMLKAWTPENKNTDVPRMNINDQYTNRLTDRFLTSSDYLSLQNITLGYTLPKSLTRKMQIDGVRVFFVADNVALLTARKGLDPRQGYVAADNVYSPIRTISGGISLNF” here?
A: not soluble

Q: With “MLNEIICAGFGGQGVLTAGKIIMYVAYKAEKKITWFPSYGNEMRGGSANCNVVVSDEKIANPCVKNPDILLGMNSVSVDKYESLMKKNGYMFVNESLVSKDRKYREDINVIKVPVTEIAQNLGNEKAANICMLGAMVKSLDLFTKEEFESGMCEYFENQGKGKFNSKNVEAFEAGYDYE” as the sequence, how does the “soluble on expression in E. coli” value read?
A: not soluble

Q: Which “soluble on expression in E. coli” value does the source give for “TVESNWGGAILIGSDFDTVSATANVPSASGGSSAAGTAWVGIDGDTCQTAILQTGFDWYGDGTYDAWYEWYPEVSDDFSGITISEGDSIQMSVTATSDTSGSATLENLTTGQKVSKSFSNESSGSLCRTNAEFIIEDFEECNSNGSDCEFVPFASFSPAVEFTDCSVTSDGESVSLDDAQITQVIINNQDVTDCSVSGTTVSCSYV” here?
A: soluble
